Results: patent US12503518B2, “Heparanase-neutralizing A54 monoclonal antibody” (TECHNION RESEARCH & DEVELOPMENT FOUNDATION LIMITED, priority 2020, dated 2025)

Tests used:
EMT-6 luciferase cells = experiment: EMT-6 breast carcinoma tumor growth in Balb/c mice; assay type: in vivo; settings: 360 μg/mouse, 2 times/week; vs PBS
Protocol: In subsequent studies, the effect of mAb A54 on breast carcinoma tumor growth was investigated. Balb/c mice (n=3) were inoculated in the mammary fad pad with EMT-6 luciferase cells (0.5×10^6), and mice were treated with A54 mAb (360 μg/mouse, 2 times/week) or PBS as control. Tumor growth was evaluated by IVIS imaging (FIGS. 9A and 9B) and quantification of luciferase signals is shown graphically (FIG. 9C). At the end of the experiment, tumors were resected and weighted (FIG. 9D).

[1] = system: 4T1 breast carcinoma cells; experiment: 4T1 breast carcinoma spontaneous metastasis, orthotopic syngeneic Balb/c model; assay type: in vivo, mouse
Protocol: 4T1 mouse breast carcinoma (spontaneous metastasis). Luciferase labeled 4T1 breast carcinoma cells (1×10^5/Balb/c mouse) are injected directly into the third mammary fat pad and treatment of mice (PBS control vs. mAb A54 500 μg/mouse, 3 times/week began 3 days after 4T1 cell inoculation. Mice were randomized into two groups of 6 mice, 4 days postinoculation (Day 0). On day 15 of the study the mammary fat pad including the primary tumor was excised on all mice while under 2% Isoflurane anaesthetic. Mice were treated with mAb A54 as described above and IVIS bioluminescent imaging is performed 12 and 18 days after mastectomy. At termination, mice are sacrificed and the number of overt macrometastases on the surface of the lungs was enumerated manually (Hammond et al., PLoS One 2012; 7(12):e52175).
IVIS imaging. Bioluminescent imaging of luciferase-expressing tumors is performed with a highly sensitive, cooled charge coupled device (CCD) camera mounted in a light-tight specimen box (IVIS; Xenogen Corp., Waltham, MA). Imaging is performed in real time, is non-invasive and provides quantitative data. Briefly, mice are injected intraperitoneally with D-luciferin substrate at 150 mg/kg, anesthetized and placed onto a warmed stage inside the light-tight camera box, with continuous exposure to isoflurane (EZAnesthesia, Palmer, PA). Light emitted from the bioluminescent cells is detected by the IVIS camera system with images quantified for tumor burden using a log-scale color range set at 5×10^4 to 1×10^7 and measurement of total photon counts per second (PPS) using Living Image software (Xenogen).
In subsequent studies, the effect of mAb A54 on cancer metastasis, the hallmark of heparanase activity, was investigated. A syngeneic breast carcinoma model was applied, which resembles the scenario in humans. Briefly, luciferase labeled 4T1 breast carcinoma cells (0.5×10^5) were orthotopically injected into the third mammary fat pad of Balb/c mice. Treatment of the mice (PBS control vs. mAb A54; 500 μg/mouse, 3 times/week) began 3 days after 4T1 cell inoculation. […] On day 15 of the study the mammary fat pad including the primary tumor was excised from all mice (under 2% Isoflurane anesthetic) and weighed. […] Mice were further treated with mAb A54 as described above and IVIS bioluminescent imaging was performed on day 35 (e.g., […]).

[2] = system: Luc-U87 human glioma cells; experiment: U87 glioma tumor growth in NOD/SCID mice, IVIS imaging; assay type: in vivo; settings: s.c. tumors, 500 μg/mouse, 3 times/week; vs PBS; P=0.04
Protocol: U87 glioma. Cells from exponential cultures of Luciferase labeled U87 glioma cells were detached with trypsin/EDTA, washed with PBS and brought to a concentration of 5×10^7 cells/ml. Cell suspension (5×10^6/0.1 ml) was inoculated subcutaneously at the right flank of 5-weeks old female SCID/Beige mice (n=7). Three days after cell inoculation, mice are randomly assigned to 2 cohorts (5-10 mice each) receiving (a) vehicle (PBS); and (b) A54 mAb (500 μg/mouse, 3 times/week). Tumor development is inspected (once a week) by IVIS imaging following administration of luciferin (see below) as described (Barash et al. FASEB J 2010; 24:1239-48, Barash et al., J Natl Cancer Inst. 110:1102-1114, 2018). […]
IVIS imaging. […] Imaging is performed in real time, is non-invasive and provides quantitative data. […] Light emitted from the bioluminescent cells is detected by the IVIS camera system with images quantified for tumor burden using a log-scale color range set at 5×10^4 to 1×10^7 and measurement of total photon counts per second (PPS) using Living Image software (Xenogen).
Similarly, Luc-U87 human glioma cells (5×10^6/0.1 ml) were inoculated subcutaneously (s.c.) at the right flank of 5-weeks old female NOD/SCID mice (n=5). […] Tumor growth was evaluated by IVIS imaging (FIGS. 5D and 5E) and quantification of luciferase signals is shown graphically (FIG. 5F).

B1: mAb A54: heparanase-neutralizing murine monoclonal antibody, IgG1-Kappa; VH SEQ ID NO: 7, VL SEQ ID NO: 8; binds HBD-II of heparanase (antibody, listed as Mus musculus, V domains shown)
VH: QVQLQQSGAELAKPGASVRMSCKASGYTFTNYWMHWVKQRPGQGLEWIGYINPTTGYTEYNQKFKDKATLTADKSSSTAYMQLSSLTSEDSAVYYCARGGAGYDYDEDYAMDYWGQGTSVTVSS
VL: DIVLTQSPASLAVSLGQRATISCRASESVEYFGTSYMNWYQQKPGQPPKLLIYLASILESGIPARFSGSGSGTDFTLNIHPVEEEDAATYYCQQSNEDPYTFGGGTKLEIK
- breast carcinoma tumor growth (IVIS signal, tumor weight) (EMT-6 luciferase cells): attenuates the growth of breast carcinoma
- luciferase signal generated by the primary tumors ([1]; 500 μg/mouse, 3 times/week, IVIS on day 12, vs PBS): no differences in the luciferase signal
- lung metastases (IVIS signal after mastectomy) ([1]; 500 μg/mouse, 3 times/week, IVIS on day 35, two out of 5 untreated mice developed lung metastases): hardly-detected signal
- weight of excised primary tumors ([1]; 500 μg/mouse, 3 times/week, excised day 15, vs untreated): no difference in weights
- inhibition of lung colonization ([1]; repeated experiment with similar results): almost complete inhibition of lung colonization
- glioma tumor growth rate (IVIS luciferase signal) [2]: marked inhibition of the glioma tumor growth rate
